Test: soluble on expression in E. coli; label from the status in PepcDB or PDB records
In the case of “SLELKITDFKVFVAQANFEWAFVRIYSKDLYGTGEAGPAPGLKGMESEFIQLLIGEDAFKVNRIAEKLRYATLYSGTTVYHLISAINIALYDLIGKYLNVPIYKLLGGDKTEIPVYVDAHGGKGLEAINALHLPVNLPWIKEAEVETNRLITTNNPVHGRLSMEKWNEDYSPEAYAKRALKMKNEGYKAMKFDLDVPTPYIDLRRVRNGDLSLKDIDYMVDIVKAVRESVGDEVEIMFDLHWRYNLNTAIRICKALEPYRLRWLEDPMPAIMAVSNYDELKLLTSQCSVPIETGENLYTVYQFKDLLNTGVRVWAPDIVKAGGITEGRRIAELAAMYDIEYSPHNIASPIGTMAHAHVGSIANTFGFVEFHGHDVPFWNEIVKPKRKIIEDGVIKLTDDPGLGIDLDDEVMRKYWPTYEL”, the “soluble on expression in E. coli” value is reported as “soluble”. In the case of “MGHHHHHHSHMASKKPDKTYEEMVKEVERLKLENKTLKQKVKSSGAVSSDDSILTAAKRESIIVSSSRALGAVAMRKIEAKVRSRAAKAVTEQELTSLLQSLTLRVDVSMEETTVGASGGIGPSSQTETKKRRPRSKSRHRHDHE”, the “soluble on expression in E. coli” value is reported as “not soluble”. In the case of “MTTSHRPQLEARSGAKAAAYTPTGIEHARLLPGHTTLKYRKFKEEENLRANCAQEDRSNDKSLEEAVMNEEKQDVVGSGNLQETRSEKDQKDSLQELLVTQKNKVEDKAELEGNEQLKGGNSSRRSWRKGTAFGRHKVTKETNIKEHATKKSASGYINDMTKSEYHQEFLHKHVR”, the “soluble on expression in E. coli” value is reported as “not soluble”. For “MKTHQYELIDEKVFEHEFDNGLKLFIIPKPGFQKTYVTYTTQFGSLDNHFKPIGSQQFVKVPDGVAHFLEHKLFEKEDEDLFTAFAEENAQANAFTSFDRTSYLFSATSNIESNIKRLLNMVETPYFTEETVNKEKGIIAEEIKMYQEQPGYKLMFNTLRAMYSKHPIRVDIAGSVESIYEITKDDLYLCYETFYHPSNMVLFVVGDVSPQSIIKLVEKHENQRNKTYQPRIERAQIDEPREINQRFVSEKMKLQSPRLMLGFKNEPLDESATKFVQRDLEMTFFYELVFGEETEFYQQLLNKDLIDETFGYQFVLEPSYSFSIITSATQQPDLFKQLIMDELRKYKGNLKDQEAFDLLKKQFIGEFISSLNSPEYIANQYAKLYFEGVSVFDMLDIVENITLESVNETSELFLNFDQLVDSRLEMENR”, the “soluble on expression in E. coli” value was “soluble”. For “MPVKKESNAELDLDWRCRDGSSLVASLQPKPDPQKTGNYRKAKVSTTVSIPTAKATGNAPKYLPPHLRNRQESENKEEDDESECNSDTEKHSVISDQFSDSVDETSVKKIRIHWRGRRWTRGIECIGVQVDSQITRYSKLDDKCVRKSNSGRETTQTGCISDFAFAEVARLLKTPEIELELFAVDVPPFIQGEPRESYFNAMEKTFNLENVTRVNAKRVRLIGLTISEMEAVLKWVSVENLVVIRVYSGKNSIDERGAIVIQNMLSIFPQLQVGSFHMIVSNPLGVAKTFDEIYSDRLVKTPIILKGLDEEPKFNMKITSCDIQVRRESKKKKVTQI”, the “soluble on expression in E. coli” value was “not soluble”. In the case of “MGSDKIHHHHHHMMYTNDNRIVMTLDAGGTNFVFSAIQGGKEIADPVVLPACADCLDKCLGNLVEGFKAIQAGLPEAPVAISFAFPGPADYQAGIIGDLPNFPSFRGGVALGPFLEDIFGIPVFINNDGSLFAYGEALTGVLPEINRRLREAGSTKRYKNLLGVTLGTGFGAGVVIDGELLRGDNAAGGYVWCLRNKKYPEYIVEESVSIRAVMRVYAERSGDAGARTPKEIFEIAEGIRPGNREAAIAAFEELGEMAGDALASAITLIDGLIVIGGGLSGASKYILPVLLKEMNAQTGMMDGARFGRLQKEVYDLDEEKSFAGFARGEAVEVLVPGTNRKVGYDPCKRIGVTFSKQGANRSIAMGAYVFALNHLSK”, the “soluble on expression in E. coli” value is reported as “not soluble”. For “MHPSLRYIQGYPQNIVEQVSSLVDNGKLIPWFEKRYPDRHQIKSEKALYEYAIAIKNRYMKKASPISKVVYDKKIHAVNNALGLHSVISRNHGGKLKSKNEIRIANVFKDAPEALLRMLVVHELAHTREKNHDKAFYQLCCYMEPEYHQLELDARLFMIYLDLKANSNEEQLEHHHHHH”, the “soluble on expression in E. coli” value was “soluble”. With “MSPQDTCCPPDSWPALKVDYKPKGKLEDIGKGLKAYVVGNGPRAVIALNDVFGIESGHSKEICDAIADKGFTVVFPDVFRGKPLQVSDMSKLFDELPGWAKQFDYEPALRKDVVEVILPYLHDKLGFKSNDQIALAGFCWGAFMLFHLAGDTKLPGGPFACGVSFHPSVQIEGVFQRDPLQLIDRATCPQLLLPSAGEPDYMKEEGDAIKKLRAKPFGASCGVKTFPSMQHGWVNRGDRNDPQVVKEAQEALQLAVDFMMRHTKPKA” the “soluble on expression in E. coli” value was “not soluble”. In the case of “MSLSSLGAPAISAASFLQDLIHRYGEGDSPTLQQLKALLNHLDVGVGRGNVTQHVQGHRNLSTCFSSGDLFTAHNFSEQSRIGSSELQEFCPTILQQLDSRACTSENQENEENEGHHHHHH”, the “soluble on expression in E. coli” value is reported as “soluble”. In the case of “TPHLVNLNEDPLMSECLLYYIKDGITRVGQADAERRQDIVLSGAHIKEEHCIFRSERSNSGEVIVTLEPCERSETYVNGKRVSQPVQLRSGNRIIMGKNHVFRFNHPEQARAEREKT”, the “soluble on expression in E. coli” value is reported as “soluble”. In the case of “MKKVLFLLFLVFSFGVYSATFSDSDKKEILKQFSEFQKAVKKKDAAAVSRYISYPLKEGNTKEVIWKNSSELAKDLKDKETYTFYSINELKIDSNANKIINVEERLLEKNGEFGDEFLSVTGRFLDTDDVEGTIYTGIDKPHFVVAVSVYDDMFEGGTYYLFSFENKKLELVSIFRLP”, the “soluble on expression in E. coli” value is reported as “not soluble”. For “SNAMADGIYGSFENLKKHAGTMTLEAYMRFSAKLSEAKDEMGTKEYEVFTKELKKLTNAKLAYGDANGNIDYDALSPEKREEMKTVSMGLQPYFDKLNGHKSSKEVLTQEEFDRYMEALMTHEIVRVKTKSTGAIKVEEVPEAYKERFMKAEQFMEYVDEKVR”, the “soluble on expression in E. coli” value was “soluble”. In the case of “MGSDKIHHHHHHVKKLELYTGTEQGKPAIGIRLGGEASIQDLLDLWQPLCDDSELFKSYAAGNHATCRGCLHNCCQTAYVIPDLISFKKMAAHLHLTYKEFLSADFFDAEKLEAGIVRMKPNPCIFLQDNICSIYPLRSLICRFYICCQLMGDCEQLIYSICWSGSAATQLFAEQEGLINSKGSGALSSFDLMFKRLMEEYRFDPRVQLFLQANDYYDIPLSAFTAADI”, the “soluble on expression in E. coli” value is reported as “not soluble”. In the case of “QKLVQLILDEIVEGGAKVEWTDIAGQDVAKQALQEMVILPSVRPELFTGLRAPAKGLLLFGPPGNGKTLLARAVATECSATFLNISAASLTSKYVGDGEKLVRALFAVARHMQPSIIFIDEVDSLLSERSSSEHEASRRLKTEFLVEFDGLPGNPDGDRIVVLAATNRPQELDEAALRRFTKRVYVSLPDEQTRELLLNRLLQKQGSPLDTEALRRLAKITDGYSGSDLTALAKDAALEPIRELNVEQVKCLDISAMRAITEQDFHSSLKRIRRSVAPQSLNSYEKWSQDYGDITIK”, the “soluble on expression in E. coli” value is reported as “soluble”. With “MATAATTASRSTTAGTSSTMGTPATTSAASRTTTTGTTTTMGQLIT” the “soluble on expression in E. coli” value was “not soluble”. For “MGSSHHHHHHSSGLVPRGSPQPPADEQPEPRTRRRAYLWCKEFLPGAWRGLREDEFHISVIRGGLSNMLFQCSLPDTTATLGDEPRKVLLRLYGAILQMRSCNKEGSEQAQKENEFQGAEAMVLESVMFAILAERSLGPKLYGIFPQGRLEQFIPSRRLDTEELSLPDISAEIAEKMATFHGMKMPFNKEPKWLFGTMEKYLKEVLRIKFTEESRIKKLHKLLSYNLPLELENLRSLLESTPSPVVFCHNDCQEGNILLLEGRENSEKQKLMLIDFEYSSYNYRGFDIGNHFCEWMYDYSYEKYPFFRANIRKYPTKKQQLHFISSYLPAFQNDFENLSTEEKSIIKEEMLLEVNRFALASHFLWGLWSIVQAKISSIEFGYMDYAQARFDAYFHQKRKLGV”, the “soluble on expression in E. coli” value was “soluble”. For “MSLKDITLQVALPKFGYKENVKSFVLEVIAKDSSFWNFFSGNEARKQIAVLVDNTAPKINIISNSYQIEQGGAGAVVFKADDANLDKVYIETNKGKIFKATPYVKEGYYAALIAWDARDEEFRAFVIATDKAGNISKERIRYYFVNRKYRVSNINLTDKFLDGKIENLANQYAPKDNNLNRYEKFKFVNETLRNSNEKLIHEITSKVPEEKIDNFDLNLFLPLKNGMKVADFADHRYYSYNGQFVSDSYHMGLDLASVAQAPIISNNAGKVVFAAENGIYGLNLIVYHGFGVYSLYGHCSSKNVDLDEMINKQSIIGKTGTSGLALGDHLHFGVLVQGVETRPEQWQDKKWIENNIYNVLNDGKKIILGKNEGHHHHHH”, the “soluble on expression in E. coli” value was “not soluble”. In the case of “MSTCSDESCDKECPLCMETLELDDINFYPCKCEYQICRFCWHRIRTDENGLCPACRQPYPEDPVNFKPMTTDDVRKHKDEQRLKKQAEKLKLSDARQYLCNYRVLQKNLVYVVGLSPRVADPEILKKNEYFGRYGKIQKIVTSATPSLPAPHLPPSHTAYVTYKRVDDALRAIQGVHNSMLDGRLVKASLGTTKYCSSFLNSRKCFKPVGECMYLHENAEAEISFTKDDMHLGKHTEYEKRLIESMNSRPPPPQSTLASQLDKILAPTSNSPRRYLEDDSDTVDDVERTGSAIHMCADDPDDDDADSTNTSNSIDDPAPSNPADETVNSRRSNQTARERQWSERDEISVAPSNTPPTDPEGNENEFEEDIHRNDVSDLMSKLDVNDDRLARTSFSENDYLGIPAPAKHQEAPAPLMQWEALLGLSSPSAQSTIVEPSSLFPTFKMDSGFNSQSLFGTHTSSTPSFRREASPPPGLARFNSDDDLGFDPFTESSKGLSALLQEEQEQIPPHNSASNHTLDVLKQLFGQLPEQRQSTQQHPQHLQSSHQQHPLQQNQDQHHSFLHQLHAQQQHQQQQFAADMNRQQDYMYSRLMSQQQQQSQQQRQFDSTPGFSHPFGSMQQQQQSSQQQQHQSQSSQSSSLLQDLFNRQQQQHQAQQQAQQHQQQQMYAGINSYMYNDMLMPRVPFGMAPPPGLGGPSTNRSSTTQQAPPHMTQQSQQQQQQQQSSMGLFGMGGHQSMMQDHQSQQPQSAQDAFKALLPNVNVRFMDDNSMSRWSHENSLRSSAVPPPPGFSSVMNR”, the “soluble on expression in E. coli” value is reported as “not soluble”. For “MSVAGLKKQFHKATQKVSEKVGGAEGTKLDDDFKEMERKVDVTSRAVMEIMTKTIEYLQPNPASRAKLSMINTMSKIRGQEKGPGYPQAEALLAEAMLKFGRELGDDCNFGPALGEVGEAMRELSEVKDSLDIEVKQNFIDPLQNLHDKDLREIQHHLKKLEGRRLDFDYKKKRQGKIPDEELRQALEKFDESKEIAESSMFNLLEMDIEQVSQLSALVQAQLEYHKQAVQILQQVTVRLEERIRQASSQPRREYQPKPRMSLEFPTGDSTQPNGGLSHTGTPKPSGVQMDQPCCRALYDFEPENEGELGFKEGDIITLTNQIDENWYEGMLHGHSGFFPINYVEILVALPH”, the “soluble on expression in E. coli” value was “soluble”. For “GMTTENTTALLLIDFQNDYFSTYNGAKNPLVGTEAAAEQGAKLLAKFRQQGLPVVHVRHEFPTDEAPFFLPGSDGAKIHPSVAAQEGEAVVLKHQINSFRDTDLKKVLDDAGIKKLVIVGAMTHMCIDAVTRAAEDLGYECAVAHDACATLDLEFNGITVPAAQVHAAFMSALSFAYANVASADELIAGL”, the “soluble on expression in E. coli” value was “soluble”.

Source: the DeepSol protein solubility set
